Test results from patent US20260125477A1 (BEIJING MABWORKS BIOTECH, published 2026).

B1: 10D7 (antibody, human IgG1, kappa, V domains shown)
VH: QVQLVQSGPGLVKPSETLSLTCTVSGGSISRSSYYWGWIRQPPGKGLEWIGNIFYAGSTYYNPSLKSRVTISVDTSKNQFSLKLSSVTAADTAVYYCARRITGTTGWFDPWGQGTLVTVSS
VL: DIQLTQSPSSLSASVGDRVTITCRASQGIRNDLGWYQQKPGKAPKLLIYAASTLQSGVPSRFSGSGSGTDFTLTISSLQPEDFATYYCLQDYNYPRTFGQGTKVEIKR
notes: also called 10D7-WT; Ab10D7
B2: 10F5 (antibody, human IgG1, kappa, V domains shown)
VH: QVQLVQSGAEVKKPGSSVKVSCKASGGTFSSQAISWVRQAPGQGLEWMGRIIPMLGIGDYAQSFQGRVTITADKSTSTAYLEVSSLGSEDTAVYYCAREGIAALGTNYYYGMDVWGQGTAVTVSS
VL: EIVMTQSPSSVSASVGDRVTITCRASQGISRWLAWYQQKPGKAPKLLIYVASSLQSGVPSRFSGSGSGTDFTLTISSLQPEDFATYYCQQANSFPFTFGPGTKVDIRR
notes: also called Ab10F5
B3: Enoblituzumab (antibody, human IgG1, kappa, V domains shown)
VH: EVQLVESGGGLVQPGGSLRLSCAASGFTFSSFGMHWVRQAPGKGLEWVAYISSDSSAIYYADTVKGRFTISRDNAKNSLYLQMNSLRDEDTAVYYCGRGRENIYYGSRLDYWGQGTTVTVSS
VL: DIQLTQSPSFLSASVGDRVTITCKASQNVDTNVAWYQQKPGKAPKALIYSASYRYSGVPSRFSGSGSGTDFTLTISSLQPEDFATYYCQQYNNYPFTFGQGTKLEIKR
notes: Humanized anti-B7-H3 antibody of MacroGenics with optimised Fc, used as the positive control; also called AbEno; enoblituzumab-IgG1-Mut
B4: 6B5 (antibody, human IgG1, kappa, V domains shown)
VH: QVQLVESGPGLVKPSQTLSLTCTVSDGSISSGGYYWSWIRQHPGKGLEWIGYIYYSGGTYYSPSLKSRVTISVDTSKNQFSLKLTSVTAADTAVYYCARRAGYSSSFDSWGQGILVTVSS
VL: EIVLTQSPLSLPVTPGEPASISCRSSQSLLYSNGYTYLDWYLQKPGQSPQFLIYLGFNRASGVPDRFSGSGSGTDFTLKISRVEAEDVGVYYCMQGLQTPYTFGQGTKLEIKR
notes: also called 6B5-WT; Ab6B5

biological target: T1, human B7-H4 protein, with His tag (MALS verified) (human, UniProt Q7Z7D3 29-258, limits assumed); assay: SPR (Biacore T200), antibody captured on Protein A chip
T1 construct: Bought protein
T1 sequence (looked up): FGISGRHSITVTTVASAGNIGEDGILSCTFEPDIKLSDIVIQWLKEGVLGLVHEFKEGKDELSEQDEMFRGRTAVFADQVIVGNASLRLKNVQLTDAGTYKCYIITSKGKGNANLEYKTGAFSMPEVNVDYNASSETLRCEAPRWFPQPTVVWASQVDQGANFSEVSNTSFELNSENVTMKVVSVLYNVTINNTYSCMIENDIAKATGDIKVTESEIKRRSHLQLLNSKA
Protocol: (§1) The anti-human B7-H3 antibodies were tested for their binding capability to B7 family proteins by SPR using Biacore T200 biosensor (Biacore, US) provided with a pre-fixed Protein A sensor chip.
(§2) The dissociation was monitored for 600 sec. The data was analyzed using Biacore 8k evaluation software version 3.0, to obtain the binding responses, and the protein concentration-binding response curves were plotted, to determine the cross-reaction of the anti-human B7-H3 antibodies to the B7 family proteins.

B1: no binding (tested: 200 nM).
B2: no binding (tested: 200 nM).

biological target: T2, human B7-H5/Gi24/VISTA protein, with His tag (MALS verified) (human, UniProt Q9H7M9 33-194); assay: as above
T2 construct: Bought protein
T2 sequence (looked up): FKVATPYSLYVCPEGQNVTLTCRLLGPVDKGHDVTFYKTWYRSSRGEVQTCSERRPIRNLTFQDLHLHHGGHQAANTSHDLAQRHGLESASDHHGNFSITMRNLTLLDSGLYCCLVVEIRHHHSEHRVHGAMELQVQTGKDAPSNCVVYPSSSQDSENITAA
Protocol: as §1, §2

B1: no binding (tested: 200 nM).
B2: no binding (tested: 200 nM).

biological target: T3, human B7-H7/HHLA2 protein, with His tag (MALS verified) (human, UniProt Q9UM44 23-344, limits assumed); assay: as above
T3 construct: Bought protein
T3 sequence (looked up): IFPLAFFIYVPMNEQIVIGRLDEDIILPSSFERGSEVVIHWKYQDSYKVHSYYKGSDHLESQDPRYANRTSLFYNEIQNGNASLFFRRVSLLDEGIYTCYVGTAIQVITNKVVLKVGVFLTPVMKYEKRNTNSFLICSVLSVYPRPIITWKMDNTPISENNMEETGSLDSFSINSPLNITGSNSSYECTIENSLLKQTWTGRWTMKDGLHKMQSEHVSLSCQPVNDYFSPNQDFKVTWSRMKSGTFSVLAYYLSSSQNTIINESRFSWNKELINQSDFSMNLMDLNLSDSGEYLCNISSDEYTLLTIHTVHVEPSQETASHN
Protocol: as §1, §2

B1: no binding (tested: 200 nM).
B2: no binding (tested: 200 nM).

biological target: T4, mouse B7-H3/CD276 protein, with His tag (mouse, UniProt Q8VE98 29-244, limits assumed); assay: as above
T4 construct: Bought protein
T4 sequence (looked up): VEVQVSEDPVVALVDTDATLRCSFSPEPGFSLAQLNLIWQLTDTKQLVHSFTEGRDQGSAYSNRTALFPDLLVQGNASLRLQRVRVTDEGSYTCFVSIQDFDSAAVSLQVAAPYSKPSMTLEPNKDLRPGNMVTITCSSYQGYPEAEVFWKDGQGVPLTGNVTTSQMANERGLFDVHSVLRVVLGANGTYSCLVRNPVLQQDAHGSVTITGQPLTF
Protocol: The fully human anti-human B7-H3 antibodies were tested for their binding affinity to human B7-H3 (4Ig), human B7-H3 (2Ig), monkey B7-H3 (monkey B7-H3/CD276 protein, with His tag, Cat #: B73-C52Ha, ACROBiosystems) and mouse B7-H3 protein (mouse B7-H3/CD276 protein, with His tag, Cat #: B73-M52H4, ACROBiosystems) by surface plasmon resonance (SPR) using Biacore T200 biosensor (Biacore, US) provided with a pre-fixed Protein A sensor chip. Briefly, the anti-human B7-H3 antibodies (1 μg/mL) were injected to the Biacore T200 biosensor at 10 μL/min for 20 sec, to achieve the desired protein density (100±30 RU).
The data as generated was analyzed using Biacore Insight V2.0.1 5.12933 with the one-to-one Langmuir binding model. The association rate (kₒₙ) and dissociation rate (koff) were obtained at the same time. The affinity was calculated as the quotient of the two kinetic rate constants (KD=koff/kₒₙ).

B1: no binding (tested: 200 nM highest antigen concentration).
B3: no binding (tested: 200 nM highest antigen concentration).

biological target: T5, recombinant human CD80 protein (human B7-1/CD80 protein, with His tag) (human, UniProt P33681 35-242); assay: SPR (Biacore T200), antibody captured on Protein A chip, response at 200 nM antigen
T5 construct: Bought protein
T5 sequence (looked up): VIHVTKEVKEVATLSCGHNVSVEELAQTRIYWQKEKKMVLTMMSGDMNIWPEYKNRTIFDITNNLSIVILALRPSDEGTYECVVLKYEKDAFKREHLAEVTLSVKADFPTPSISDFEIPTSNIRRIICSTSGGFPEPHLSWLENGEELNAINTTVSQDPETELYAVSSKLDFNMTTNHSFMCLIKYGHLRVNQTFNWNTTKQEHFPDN
Protocol: as §1, §2

First: B4
Second: B1
The “Response (RU)” value of the first is higher: 0.6 RU for the first, 0.2 RU for the second.

Going from B2 to B3, the “Response (RU)” value falls from 0.7 RU to -1.8 RU.

biological target: T6, human PD-L2/B7-DC protein, with His tag (human, UniProt Q9BQ51 20-219, limits assumed); assay: as above
T6 construct: Bought protein
T6 sequence (looked up): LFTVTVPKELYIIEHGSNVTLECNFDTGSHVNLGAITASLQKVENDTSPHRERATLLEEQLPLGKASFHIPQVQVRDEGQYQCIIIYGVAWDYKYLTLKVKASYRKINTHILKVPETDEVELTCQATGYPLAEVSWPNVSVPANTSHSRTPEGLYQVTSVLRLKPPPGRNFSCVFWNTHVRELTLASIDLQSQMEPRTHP
Protocol: as §1, §2

B4 and B1 are the same in “Response (RU)” value: -0.2 RU for the first, -0.2 RU for the second.

Compared with B2, B3 is lower in “Response (RU)” value: 0 RU for the first, -1.2 RU for the second.

biological target: T7, human PD-L1/B7-H1 protein, with His tag (human, UniProt Q9NZQ7 19-238); assay: as above
T7 construct: Bought protein
T7 sequence (Q9NZQ7 19-238 limits assumed): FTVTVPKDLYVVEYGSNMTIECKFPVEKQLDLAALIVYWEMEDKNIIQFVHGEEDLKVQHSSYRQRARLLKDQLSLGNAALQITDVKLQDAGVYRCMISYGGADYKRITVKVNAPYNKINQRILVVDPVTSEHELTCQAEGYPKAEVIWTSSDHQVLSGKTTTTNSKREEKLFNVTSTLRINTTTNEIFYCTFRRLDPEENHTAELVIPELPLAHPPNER
Protocol: as §1, §2

Going from B4 to B1, the “Response (RU)” value falls from 1 RU to 0.3 RU.

Going from B2 to B3, the “Response (RU)” value falls from 0.5 RU to -2.2 RU.

biological target: T1, human B7-H4 protein, with His tag (MALS …); assay: as above
Protocol: as §1, §2

Compared with B4, B1 is lower in “Response (RU)” value: 0.5 RU for the first, 0.3 RU for the second.

First: B2
Second: B3
The “Response (RU)” value of the first is higher: 0.3 RU for the first, -2 RU for the second.

biological target: T2, human B7-H5/Gi24/VISTA protein, with …; assay: as above
Protocol: as §1, §2

Going from B4 to B1, the “Response (RU)” value falls from 0.9 RU to 0.6 RU.

First: B2
Second: B3
The “Response (RU)” value of the first is higher: 0.6 RU for the first, -1.8 RU for the second.

biological target: T3, human B7-H7/HHLA2 protein, with His tag …; assay: as above
Protocol: as §1, §2

Compared with B4, B1 is lower in “Response (RU)” value: 1.3 RU for the first, 0.2 RU for the second.

First: B2
Second: B3
The “Response (RU)” value of the first is higher: 1.7 RU for the first, -1.3 RU for the second.
